From patent US20060078562A1, “RAGE fusion proteins and methods of use” (priority 2004, published 2006)

B1: TTP-4000: four domain RAGE-IgG Fc fusion protein, SEQ ID NO: 32: human RAGE amino acids 1-251 linked to CH2 and CH3 domains of human IgG (protein, listed as Homo sapiens)
chain: MAAGTAVGAWALVLSLWGAVVGAQNITARIGEPLVLKCKGAPKKPPQRLEWKLNTGRTEAWKVLSPQGGGPWDSVARVLPNGSLFLPAVGIQDEGIFRCQAMNRNGKETKSNYRVRVYQIPGKPEIVDSASELTAGVPNKVGTCVSEGSYPAGTLSWHLDGKPLVPNEKGVSVKEQTRRHPETGLFTLQSELMVTPARGGDPRPTFSCSFSPGLPRHRALRTAPIQPRVWEPVPLEEVQLVVEPEGGAVAPPSVFLFPPKPKDTLMISRTPEVTCVVVDVSHEDPEVKFNWYVDGVEVHNAKTKPREEQYNSTYRVVSVLTVLHQDWLNGKEYKCKVSNKALPAPIEKTISKAKGQPREPQVYTLPPSRDELTKNQVSLTCLVKGFYPSDIAVEWESNGQPENNYKTTPPVLDSDGSFFLYSKLTVDKSRWQQGNVFSCSVMHEALHNHYTQKSLSLSPGK

Assays:
[1] = target: Fc receptor on THP-1 cells; experiment: cell-based or functional assay
[2] = system: male C57BL/6 mice, cerebral ischemia; experiment: Mouse model of stroke (cerebral ischemia and reperfusion, infarct); type: in vivo; settings: treated just prior to reperfusion
Procedure: For example, the RAGE fusion proteins of the present invention may also be used to treat stroke. […] In this model, the […] of a mouse is ligated and then reperfused to form an infart. To assess the efficacy of RAGE fusion proteins to treat or prevent stroke, mice were treated with sRAGE or TTP-4000 or control immunoglobulin just prior to reperfusion.
TTP-4000 was also compared to sRAGE in a disease relevant animal model of stroke. In this model, the […] of a mouse was ligated for 1 hour followed by 23 hours of reperfusion at which point the mice were sacrificed and the area of the infarct in the brain was assessed. […] After the nylon suture had been in place for 1 hour, the animal was re-anesthetized, rectal temperature was recorded and the suture was removed and the incision closed.
Infarct volume was determined by anesthetizing the animals with an intraperitoneal injection of sodium pentobarbital (50 mg/kg) and then removing the brains. […] The infarct area in each section was determined with a computer-assisted image analysis system, consisting of a Power Macintosh computer equipped with a Quick Capture frame grabber card, Hitachi CCD camera mounted on a camera stand. […] The images were captured and the total area of infarct was determined over the sections. […] Summing the infarct volumes of the sections calculated the total infarct volume. […]

[3] = system: Zucker diabetic rats, restenosis following vascular injury; experiment: Diabetic rat model of restenosis (balloon injury of left common carotid artery); type: in vivo; settings: 4 days after injury; dose-responsive; FIG. 13B
Procedure: In these experiments, balloon injury of left common carotid artery was performed in Zucker diabetic and nondiabetic rats using standard procedure. […] A maintenance dose was delivered every other day until day 7 after injury (i.e., at day 1, 3, 5 and 7 after injury). The maintenance dose was high=1 mg/animal for one group, or low=0.3 mg/animal for the second group. To measure vascular smooth muscle cell (VSMC) proliferation, animals were sacrificed at 4 days and 21 days after injury. For the measurement of cell proliferation, 4 day animals received intraperitoneal injection of bromodeoxyuridine (BrDdU) 50 mg/kg at 18, 12, and 2 hours before euthanasia. After sacrifice, the entire left and right carotid arteries were harvested. Specimens were stored in Histochoice for at least 24 hours before embedding. Assessment of VSMC proliferation was performed using mouse anti-BrdU monoclonal antibody. A fluorescence labeled goat anti-mouse secondary antibody was applied. The number of BrdU-positive nuclei per section were counted by two observers blinded to the treatment regimens. The remaining rats were sacrificed at 21 days for morphometric analysis. […] All data were expressed as mean±SD. […]

[4] = system: S100b/RAGE-induced production of TNF-α in THP-1 cells; experiment: Inhibition of S100b/RAGE-induced production of TNF-α in THP-1 cells; type: cell-based; settings: 10 μg protein
Procedure: THP-1 myeloid cells may be cultured in RPMI-1640 media supplemented with 10% FBS and induced to secrete TNF-α via stimulation of RAGE with S100b. When such stimulation occurs in the presence of a RAGE fusion protein, induction of TNF-α by S100b binding to RAGE may be inhibited.
Previous work has shown that the myeloid THP-1 cells may secrete TNF-α in response to RAGE ligands. In this assay, THP-1 cells were cultured in RPMI-1640 media supplemented with 10% FBS using a protocol provided by ATCC. […] The amount of TNF-α secreted by the THP-1 cells was measured 24 hours after the addition of the proteins to the cell culture using a commercially available ELISA kit for TNF-α (R&D Systems, Minneapolis, Minn.).

amyloid-beta (A-beta) = experiment: Competition of a RAGE ligand with immobilized amyloid-beta for binding to the fusion protein; settings: TTP-4000 initial solution diluted 1:10 or 1:30; RAGE ligand FAC 10 μM
Procedure: The fusion protein of the present invention may also be used to identify compounds having the ability to bind to RAGE.
Known RAGE ligands were coated onto the surface of Maxisorb plates at a concentration of 5 micrograms per well. Plates were incubated at 4° C. overnight. Following ligand incubation, plates were aspirated and a blocking buffer of 1% BSA in 50 mM imidizole buffer (pH 7.2) was added to the plates for 1 hour at room temperature. The plates were then aspirated and/or washed with wash buffer (20 mM Imidizole, 150 mM NaCl, 0.05% Tween-20, 5 mM CaCl2 and 5 mM MgCl2, pH 7.2). […] The fusion protein was added at increasing dilutions of the initial sample. The RAGE fusion protein was allowed to incubate with the immobilized ligand at 37° C. for one hour after which the plate was washed and assayed for binding of the fusion protein. Binding was detected by the addition of an immunodetection complex containing a monoclonal mouse anti-human IgG1 diluted 1:11,000 to a final assay concentration (FAC) of 21 ng/100 μL, a biotinylated goat anti-mouse IgG diluted 1:500, to a FAC of […], and an avidin-linked alkaline phosphatase. […] Binding of the complex to the immobilized fusion protein was quantified by measuring conversion of PNPP to para-nitrophenol (PNP) which was measured spectrophotometrically at 405 nm. […]

Molecule	TNF secreted by THP-1 cells in wells precoated with 10 ug/well heat aggregated human IgG1, 24 hours [1] [ng/well]	reduction in infarct volume compared to sRAGE [2]	vascular smooth muscle cell proliferation (number of BrdU proliferating cells) [3]	blocking S100b induction of TNF-α compared with sRAGE [4]	binding of fusion protein to immobilized amyloid-beta blocked by the RAGE ligand (amyloid-beta (A-beta))
human IgG1 (heat aggregated) (antibody)	> 40	–	–	–	–
B1	–	significantly greater reduction	significantly reduced	at least as effective	completely inhibited
